{"source": "paper PMC10404244", "about": "“Control of motor landing and processivity by the CAP-Gly domain in the KIF13B tail” (Nature Communications, 2023)", "binders": {"B1": {"name": "chimeric KIF5B motor domain and stalk appended with the CAP-Gly domain from KIF13B (other)", "chain": "MADLAECNIKVMCRFRPLNESEVNRGDKYIAKFQGEDTVVIASKPYAFDRVFQSSTSQEQVYNDCAKKIVKDVLEGYNGTIFAYGQTSSGKTHTMEGKLHDPEGMGIIPRIVQDIFNYIYSMDENLEFHIKVSYFEIYLDKIRDLLDVSKTNLSVHEDKNRVPYVKGCTERFVCSPDEVMDTIDEGKSNRHVAVTNMNEHSSRSHSIFLINVKQENTQTEQKLSGKLYLVDLAGSEKVSKTGAEGAVLDEAKNINKSLSALGNVISALAEGSTYVPYRDSKMTRILQDSLGGNCRTTIVICCSPSSYNESETKSTLLFGQRAKTIKNTVCVNVELTAEQWKKKYEKEKEKNKILRNTIQWLENELNRWRNGETVPIDEQFDKEKANLEAFTVDKDITLTNDKPATAIGVIGNFTDAERRKCEEEIAKLYKQLDDKDEEINQQSQLVEKLKTQMLDQEELLASTRRDQDNMQAELNRLQAENDASKEEVKEVLQALEELAVNYDQKSQEVEDKTKEYELLSDELNQKSATLASIDAELQKLKEMTNHQKKRAAEMMASLLKDLAEIGIAVGNNDVKQPEGTGMIDEEFTVARLYISKMKSEVKTMVKRCKQLESTQTESNKKMEENEKELAACQLRISQHEAKIKSLTEYLQNVEQKKRQLEESVDALSEELVQLRAQEKVHEMEKEHLNKVQTANEVKQAVEQQIQSHRETHQKQISSLRDEVEAKAKLITDLQDQNQKMMLEQERLRVEHEKLKATDQEKSRKLHELTVMQDRREQARQDLKGLEETVAKELQTLHNLRKLFVQDLATRVKKSAEIDSDDTGGSAAQKQKISFLENNLEQLTKVHKQLVRDNADLRCELPKLEKRLRATAERVKALESALKEAKENASRDRKRYQQEVDRIKEAVRSKNMAQALASDSEEADEVPEWLREGEFVTVGAHKTGVVRYVGPADFQEGTWVGVELDLPSGKNDGSIGGKQYFRCNPGYGLLVRPSRVRRATGPVRRRSTGLRLGAPEARRSATLSGSATNLASLTAALAKADRSHKNPENRKSWAS"}}, "target": "T1, tyrosinated microtubules polymerized from purified porcine brain tubulin (porcine, UniProt P02550 1-451); Q767L7 1-444, part of the tubulin labelled with biotin NHS ester and Dylight-405 (or Alexa647) NHS ester (chain and residues not told) | part of the tubulin labelled with biotin NHS ester and Dylight-405 (or …)", "T1 construct": "alpha-tubulin of porcine brain, mixture of isotypes and PTMs, approximately 50% tyrosinated; beta-tubulin of porcine brain, mixture of isotypes and PTMs; A polymer of alpha/beta-tubulin dimers, held on the coverslip through biotin-streptavidin; also called WT (tyrosinated) microtubules; tyrosinated MTs; source: purified from porcine brain (high-molarity PIPES procedure), polymerized with GTP, …", "test": "TIRF microscopy microtubule-binding assay; KIF5B constructs on tyrosinated and detyrosinated microtubules in the presence of ADP (Supplementary Fig. 5G); read-out not told", "data": [{"binder": "B1", "values": [{"measurement": "fold binding, tyrosinated over detyrosinated microtubules (ADP)", "result": "~16", "unit": "fold"}]}]}
